From publication PMC7914713, “Elucidating the Importance of DOT1L Recruitment in MLL-AF9 Leukemia and Hematopoiesis” (Cancers, 2021)

Target: T1, MBP-AF9 (MBP carrier left out. The construct limits are not given; the C-terminal ANC1 homology domain (AHD), named as the DOT1L-binding domain, is taken by convention as about 500-568.)
T1 chain: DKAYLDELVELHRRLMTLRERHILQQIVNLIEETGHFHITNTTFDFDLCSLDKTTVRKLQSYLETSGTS
Assay: fluorescence polarisation; competitive: serial dilutions of peptide with fixed MBP-AF9 (200 nM) and N-Flu-DOT1L (10 nM); 100 mM NaH2PO4, 150 mM NaCl, 0.1% β-ME, 0.01% Triton X-100; room temperature, 3 h
Conditions: both partners purified

B1: DOT1L WT 10mer (865–874) peptide (peptide, UniProt Q8TEK3 865-874, looked up)
peptide: LPISIPLSTV
notes: the DOT1L constructs of the cell lines are human; also called 10mer peptide from residues 865–874; 10mer DOT1L peptide; source: synthetic peptide
B1 showed a Ki of 20 nM.
